In patent US20200407433A1 (REMD BIOTHERAPEUTICS, published 2020):
Residue numbers refer to the chain shown, from its start.

T1: human Calcitonin Gene-Related Peptide (CGRP) (human, not fully specified)
T1 peptide: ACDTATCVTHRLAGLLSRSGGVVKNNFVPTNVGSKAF

B1: murine mAb 30B8G9B11 (antibody, mouse IgG2a, V domains shown)
VH: EVQLQQSGPELVKPGASVKISCKASGYTFTDYYMNWVKQSHGKSLEWIGDVNPNNGGTHYNQKFKGKATLTVDKSSSTAYMELRSLTSEDSAVYYCASITIVPVYFDFWGQGTTLTVSS
VL: DIVMTQSQKFMSTSVGDRVSVTCKASQNVGPNVAWYRQKPGQSPKALIYSASYRYSGVPDRFTGSGSGTDFTLTISNVQSEDLADYICQQYNYYPYTFGGGTKLEIK
notes: Murine IgG2a, kappa; also called A3; Murine A3
B2: murine mAb 24G7B10G2 (antibody, mouse IgG2a, V domains shown)
VH: B1 VH with Q5L, V12M, A16T, G57D, H59T, V72I, V104L, T116A
VL: B1 VL with P31I, R37Q, I48L, Q79K, E81G, D85E, I87F, Y93T
notes: Murine IgG2a, kappa; also called A2; 24G7B10G2 ("A2")
B3: murine mAb 6G5C8C4 (antibody, mouse IgG2a, V domains shown)
VH: B1 VH with V51I, H59T, S77T, S98V, V104Y, F108Y
VL: B1 VL with P31S, R37Q, Y53F, G57R, T63S, I87F, Y93S, G100A, I106L
notes: Murine IgG2a, kappa; also called A1; 6G5C8C4 ("A1")
B4: REMD 128 (antibody, human IgG4 S228P, kappa, V domains shown)
VH: QVQLVQSGAEVVKPGASVKVSCKASGYTFTDYYMNWVKQAPGQGLEWIGDVNPNNGGTHYNQKFKGRVTLTVDTSISTAYMELSRLRSDDTAVYYCASITIVPVYFDFWGQGTLVTVSS
VL: DIQLTQSPSFLSASVGDRVTITCKASQNVGPNVAWYRQKPGKAPKALIYSASYRYSGVPSRFSGSGSGTEFTLTISSLQPEDFATYICQQYNYYPYTFGQGTKLEIKR
notes: Humanized full-length IgG (IgG4 constant region, kappa); also called IgG 10 (H3/L2); 10 (H3/L2)
B5: REMD 128.3 (antibody, human IgG4 S228P, kappa, V domains shown)
VH: B4 VH with V20I, V68A, V115L
VL: B4 VL
notes: Humanized full-length IgG (IgG4 constant region, kappa); also called IgG 14 (H4/L2); 14 (H4/L2)
B6: REMD 128.2 (antibody, human IgG4 S228P, kappa, V domains shown)
VH: B4 VH with V20I, V68A, V115L
VL: B4 VL with A13T, A43S
notes: Humanized full-length IgG (IgG4 constant region, kappa); also called IgG 15 (H4/L3); 15 (H4/L3)
B7: REMD 128.1 (antibody, human IgG4 S228P, kappa, V domains shown)
VH: B4 VH
VL: B4 VL with A13T, A43S
notes: Humanized full-length IgG (IgG4 constant region, kappa); also called IgG 11 (H3/L3); 11 (H3/L3)
B8: murine-human chimeric IgG4 derived from murine antibody A3 (antibody, V domains shown)
VH: B1 VH
VL: DIVMTQSQKFMSTSVGDRVSVTCKASQNVGPNVAWYRQKPGQSPKALIYSASYRYSGVPDRFTGSGSGTDFTLTISNVQSEDLADYICQQYNYYPYTFGGGTKLEIKR
notes: also called chimeric antibody

Target: T1, human Calcitonin Gene-Related Peptide …
Assay: cell-based or functional assay

Question: For B1, which “SK-N-MC CGRP IC50 (pM)” value is on record?
Answer: Its value is 152 pM.

Question: With B2 as the binder, how does the “SK-N-MC CGRP IC50 (pM)” value read?
Answer: Its value is 195 pM.

Question: For B3, which “SK-N-MC CGRP IC50 (pM)” value is on record?
Answer: The value was 101 pM.

Target: T1, human Calcitonin Gene-Related Peptide …
Assay: cell-based or functional assay
Remark: another data set of the same source

Question: B4 was tested. Which “SK-N-MC IC50 (pM)” value did it give?
Answer: Its value is 49.2 pM.

Question: For B5, which “SK-N-MC IC50 (pM)” value is on record?
Answer: The value was 59.8 pM.

Question: With B6 as the binder, how does the “SK-N-MC IC50 (pM)” value read?
Answer: Its value is 60.4 pM.

Question: Which “SK-N-MC IC50 (pM)” value does the source give for B7 here?
Answer: The value was 38.9 pM.

Question: B1 was tested. Which “SK-N-MC IC50 (pM)” value did it give?
Answer: The value was 152 pM.

Question: B8 was tested. Which “SK-N-MC IC50 (pM)” value did it give?
Answer: The value was 152 pM.

Target: T1, human Calcitonin Gene-Related Peptide …
Assay: ELISA, human CGRP binding

Question: Which EC50 does the source give for B1 here?
Answer: Its EC50 is 70 pM.

Question: Which EC50 does the source give for B2 here?
Answer: The EC50 was 80 pM.

Question: Which EC50 does the source give for B3 here?
Answer: The EC50 was 100 pM.

target: T2, Rodent CGRP (rodent (murine)); assay: ELISA, rodent CGRP binding
T2 construct: also called murine CGRP
T2 sequence (Q99JA0 83-119): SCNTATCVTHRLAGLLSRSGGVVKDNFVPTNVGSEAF

Question: How did the EC50 turn out when B1 was run?
Answer: Its EC50 is 296 pM.

Question: With B2 as the binder, how does the EC50 read?
Answer: Its EC50 is 328 pM.

Question: How did the EC50 turn out when B3 was run?
Answer: The EC50 was 361 pM.

Target: T1, human Calcitonin Gene-Related Peptide …
Assay: SPR Biacore 8k; antibody amine-coupled to chip, CGRP as analyte
Method: The recombinant IgGs secreted to the medium and were purified using protein A affinity chromatography. Evaluating from the SDS-PAGE, the purity of humanized IgGs were all over 90%. The affinities of purified antibodies binding to CGRP were determined using a Surface Plasmon Resonance (SPR) biosensor, Biacore 8k. Antibodies were immobilized on the sensor chip through amine coupling method. Antigen CGRP was used as the analyte. The data of dissociation (kd) and association (ka) rate constants were obtained using Biacore 8k evaluation software. The equilibrium dissociation constants (KD) were calculated from the ratio of kd over ka.

Question: B4 was tested. Which Kd did it give?
Answer: The Kd was 1.37 pM.

Question: What about the koff of the same binder?
Answer: The koff was 5.79e-06 s⁻¹.

Question: What about the kon of the same binder?
Answer: Its kon is 4.23e+06 M⁻¹ s⁻¹.

Question: B5 was tested. Which Kd did it give?
Answer: The Kd was 1.54 pM.

Question: What about the koff of the same binder?
Answer: Its koff is 7.01e-06 s⁻¹.

Question: What about the kon of the same binder?
Answer: Its kon is 4.55e+06 M⁻¹ s⁻¹.

Question: Which results are given for B6?
Answer: Kd: 1.52 pM; koff: 7.57e-06 s⁻¹; kon: 4.97e+06 M⁻¹ s⁻¹

Question: Which Kd does the source give for B7 here?
Answer: Its Kd is 1.57 pM.

Question: And the koff?
Answer: The koff was 7.61e-06 s⁻¹.

Question: What about the kon of the same binder?
Answer: The kon was 4.86e+06 M⁻¹ s⁻¹.

Question: How did the Kd turn out when B8 was run?
Answer: The Kd was 3.53 pM.

Question: What about the koff of the same binder?
Answer: Its koff is 1.19e-05 s⁻¹.

Question: What about the kon of the same binder?
Answer: The kon was 3.37e+06 M⁻¹ s⁻¹.

Target: T1, human Calcitonin Gene-Related Peptide …
Assay: SPR Biacore T200; antibody amine-coupled to chip, CGRP as analyte
Method: The binding affinity between the chimeric IgG4 to antigen CGRP was determined using a Surface Plasmon Resonance (SPR) biosensor, Biacore T200 (GE Healthcare). 30B8G9B11 (“A3”) and chimeric IgG4 were each immobilized on the sensor chip through an amine coupling method. Antigen CGRP protein was used as analyte. The data of dissociation (kd) and association (kₐ) rate constants were obtained using Biacore T200 evaluation software. The equilibrium dissociation constants (KD) were calculated from the ratio of kd over kₐ.

Question: For B1, which Kd is on record?
Answer: Its Kd is 2.92 pM.

Question: What about the koff of the same binder?
Answer: Its koff is 1.56e-05 s⁻¹.

Question: And the kon?
Answer: The kon was 5.33e+06 M⁻¹ s⁻¹.

Question: For B8, which Kd is on record?
Answer: Its Kd is 2.4 pM.

Question: And the koff?
Answer: The koff was 1.51e-05 s⁻¹.

Question: And the kon?
Answer: Its kon is 6.28e+06 M⁻¹ s⁻¹.
